Data on eleven substances can be found in patent publication US20140106982A1.

In one assay the target is mAb 2H1. As to the kind of experiment: VLP library affinity selection on 2H1, clones sequenced.
Another assay addresses 2C7 antibody. The assay can be described thus: VLP library affinity selection on 2C7, clones sequenced.

Turning to DTQCQF (peptide), the copies among sequenced affinity-selected clones with mAb 2H1 turned out to be 17 copies.
With ELWRGT (peptide), the copies among sequenced affinity-selected clones with 2C7 antibody was 2 copies.
Still for that read-out and setting: the same measure for LDYEGN (peptide): 1 copy.
LDYERI (peptide) gave a copies among sequenced affinity-selected clones in the assay with 2C7 antibody of 3 copies.
LDYMRT (peptide) displayed a copies among sequenced affinity-selected clones with 2C7 antibody of 4 copies.
Still for that read-out and setting: the result for LDYQRV (peptide) reads 7 copies; that for PLWKGN (peptide), 1 copy; that for PLWRGT (peptide), 1 copy.
Still for that read-out and setting: the result for VDYERI (peptide) reads 2 copies.
WDATLQPA (peptide) yielded a copies among sequenced affinity-selected clones with mAb 2H1 of 2 copies.
Same read-out and setting: the same measure for WTADLQPE (peptide): 1 copy.
